Experimental data reported in patent US20080279850A1.

Columns and labels:
CD37 (human) [1] = biological target: T1, CD37 (human) (UniProt P11049)
T1 sequence: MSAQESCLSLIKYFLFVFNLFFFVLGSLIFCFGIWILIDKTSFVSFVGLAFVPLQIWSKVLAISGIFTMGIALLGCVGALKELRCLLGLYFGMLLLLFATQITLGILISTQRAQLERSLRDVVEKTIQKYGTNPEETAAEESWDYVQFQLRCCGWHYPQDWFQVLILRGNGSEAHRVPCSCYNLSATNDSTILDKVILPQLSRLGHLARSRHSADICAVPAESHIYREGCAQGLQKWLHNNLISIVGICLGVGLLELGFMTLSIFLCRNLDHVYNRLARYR

CD37 (human) [2] = biological target: T1, CD37 (human); remark: listed apart in the source

| Annexin V Positive, Bjab cells, 20 µg/mL SMIP with goat anti-human IgG crosslinking (Annexin V Positive) (CD37 (human) [1]) | Annexin V-PI staining of Ramos cells after 24 hours (CD37 (human) [2]) | Substance |
| --- | --- | --- |
| 30.6 | – | TRU-016 [G28-1 scFv VH11S (SSC-P)H WCH2 WCH3] (Fc fusion) |
| – | 32.8% | TRU-016, protein A purified (unfractionated) (Fc fusion) |
